For the assay, the system named is S. aureus (ATCC 25923). The assay can be described thus: Enzymatic degradation of fluorescently labeled whole cells (mutanolysin / proteinase K), incl. BONCAT control. In kind it is cell-based, Staphylococcus aureus.

B1: proteinase K: promiscuous protease (protein, UniProt P06873 106-384, looked up)
Proteinase K: AAQTNAPWGLARISSTSPGTSTYYYDESAGQGSCVYVIDTGIEASHPEFEGRAQMVKTYYYSSRDGNGHGTHCAGTVGSRTYGVAKKTQLFGVKVLDDNGSGQYSTIIAGMDFVASDKNNRNCPKGVVASLSLGGGYSSSVNSAAARLQSSGVMVAVAAGNNNADARNYSPASEPSVCTVGASDRYDRRSSFSNYGSVLDIFGPGTSILSTWIGGSTRSISGTSMATPHVAGLAAYLMTLGKTTAASACRYIADTANKGDLSNIPFGTVNLLAYNNYQA
Turning to B1, the “cellular fluorescence of D-cystine/Mal-Fl labeled cells during enzyme treatment” value (50 μg/mL mutanolysin or 500 μg/mL proteinase K, mutanolysin read at 120 minutes) was “remained mostly unchanged”. Besides, for the setting “BONCAT, 1 mM AHA, 25 μM DBCO-Fl”, the “cellular fluorescence of L-azidohomoalanine/DBCO-Fl labeled cells after enzyme treatment” value was “significant decrease”.

(Values after patent publication US20240401101A1, “A LIVE CELL ASSAY TO DETERMINE PERMEABILITY OF TEST MOLECULES TO AND/OR WITHIN THE PEPTIDOGLYCAN SCAFFOLD OF BACTERIA CELLS” (priority 2021, published 2024).)
